The values below come from article PMC6938701 (Science Advances, 2020).

The series deals with the molecule itself. The series is described as follows: non-reducing SDS-PAGE with Western blot. On the technique in general: Immunoblotting shows a protein as a band on a membrane.

B1: Recombinant human Prx2 (peroxiredoxin 2) (enzyme, UniProt P32119 2-198, looked up)
chain: ASGNARIGKPAPDFKATAVVDGAFKEVKLSDYKGKYVVLFFYPLDFTFVCPTEIIAFSNRAEDFRKLGCEVLGVSVDSQFTHLAWINTPRKEGGLGPLNIPLLADVTRRLSEDYGVLKTDEGIAYRGLFIIDGKGVLRQITVNDLPVGRSVDEALRLVQAFQYTDEHGEVCPAGWKPGSDTIKPNVDDSKEYFSKHN
Turning to B1, the stoichiometry N (as a rule, a count of units in the complex or per binding partner) came out at 2.
